Measurements published in publication doi:10.1101/2022.05.30.494040.

How the values were obtained:
[1] = biological target: Stx3 145-161 peptides (human) (UniProt Q13277); test: peptide or protein array
[2] = biological target: full-length Stx2 (human) (UniProt P32856); test: AlphaScreen or HTRF
[3] = biological target: full-length SNAP23 (UniProt O00161); test: AlphaScreen or HTRF
[4] = biological target: full-length Stx4 (UniProt Q12846); test: AlphaScreen or HTRF
[5] = biological target: SNAP25 (human) (UniProt P60880); test: AlphaScreen or HTRF
Sequence of UniProt P60880 (P60880 whole entry): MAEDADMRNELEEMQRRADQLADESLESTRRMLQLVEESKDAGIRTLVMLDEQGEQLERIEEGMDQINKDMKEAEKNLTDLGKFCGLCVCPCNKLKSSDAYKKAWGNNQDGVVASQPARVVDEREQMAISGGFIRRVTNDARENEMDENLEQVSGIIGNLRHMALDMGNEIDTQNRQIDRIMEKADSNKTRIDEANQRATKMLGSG

Sequence of UniProt P32856 (P32856 whole entry): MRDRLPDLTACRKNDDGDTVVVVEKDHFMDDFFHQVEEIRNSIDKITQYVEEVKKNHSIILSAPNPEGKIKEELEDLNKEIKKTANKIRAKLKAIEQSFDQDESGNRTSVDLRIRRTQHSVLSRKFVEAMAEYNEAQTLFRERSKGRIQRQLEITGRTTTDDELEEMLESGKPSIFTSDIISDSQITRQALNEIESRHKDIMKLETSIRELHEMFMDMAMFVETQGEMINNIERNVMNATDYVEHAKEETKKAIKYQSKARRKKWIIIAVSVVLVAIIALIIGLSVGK
Sequence of UniProt O00161 (O00161 whole entry): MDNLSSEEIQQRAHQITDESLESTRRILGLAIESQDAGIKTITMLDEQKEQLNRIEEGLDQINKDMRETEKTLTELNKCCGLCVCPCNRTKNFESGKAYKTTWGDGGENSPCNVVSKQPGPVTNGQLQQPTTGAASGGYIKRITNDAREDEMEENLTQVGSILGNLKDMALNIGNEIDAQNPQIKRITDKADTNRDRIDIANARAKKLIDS
Sequence of UniProt Q12846 (Q12846 whole entry): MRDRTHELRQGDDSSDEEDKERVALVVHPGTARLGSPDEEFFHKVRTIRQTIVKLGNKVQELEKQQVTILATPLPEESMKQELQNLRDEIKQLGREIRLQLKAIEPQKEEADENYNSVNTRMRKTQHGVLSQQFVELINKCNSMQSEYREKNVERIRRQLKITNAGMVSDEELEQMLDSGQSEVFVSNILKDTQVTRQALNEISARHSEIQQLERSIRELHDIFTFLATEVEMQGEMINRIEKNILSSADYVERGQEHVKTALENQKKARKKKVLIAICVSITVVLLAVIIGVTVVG

Substance: His-tagged recombinant Gβ1γ2 (from UniProt P62873;P59768) (complex)
- fold weaker binding than Stx2 144-160 [1]: 5 fold
- EC50 [2]: 64.8 nM
- EC50 [3]: 78.2 nM
- EC50 [4]: 92.1 nM

Substance: His-tagged recombinant Gβ1γ2 (from UniProt P62873;P59768) (complex; other documents disagree on this pair)
- EC50 [5]: 45.2 nM
